Article PMC8928829

biological target: NIH-CoVnb-112; experiment: BLI
Sequence (heavy, as listed by the source): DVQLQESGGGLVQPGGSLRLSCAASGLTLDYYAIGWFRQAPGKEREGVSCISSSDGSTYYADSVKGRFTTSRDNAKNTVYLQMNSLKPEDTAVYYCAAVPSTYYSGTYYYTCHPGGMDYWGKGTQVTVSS

Going from “SARS-CoV-2 RBD K417N (from UniProt P0DTC2) (domain or fragment)” to “SARS-CoV-2 RBD L452R (from UniProt P0DTC2) (domain or fragment)”, the Kd rises from 1.42 nM to 4.88 nM (3.4-fold).

“SARS-CoV-2 RBD T478K (from UniProt P0DTC2) (domain or fragment)” showed a Kd of 0.497 nM.
